Test results taken from patent US20190381169A1, “PHARMACEUTICAL COMBINATIONS FOR IMMUNOTHERAPY” (Technische Universitat Dresden, priority 2014, published 2019).

Molecular target: T1, p75^NTR (Homo sapiens, UniProt P08138)
T1 sequence (P08138 29-427): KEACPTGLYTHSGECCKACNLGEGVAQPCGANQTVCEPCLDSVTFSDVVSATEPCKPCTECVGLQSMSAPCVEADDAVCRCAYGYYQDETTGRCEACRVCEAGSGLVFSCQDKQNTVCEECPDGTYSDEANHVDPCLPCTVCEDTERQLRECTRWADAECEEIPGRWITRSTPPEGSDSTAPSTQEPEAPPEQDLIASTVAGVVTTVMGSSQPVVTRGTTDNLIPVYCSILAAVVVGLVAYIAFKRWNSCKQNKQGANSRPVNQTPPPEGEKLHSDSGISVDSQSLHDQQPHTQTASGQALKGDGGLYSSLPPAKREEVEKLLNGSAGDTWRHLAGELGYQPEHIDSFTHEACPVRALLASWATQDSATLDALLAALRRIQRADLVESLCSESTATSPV
Test: IL-6 produced by anti-FcεRIα activated human PDC (ELISA)
Type: cell-based
Design: nerve growth factor receptor p75^NTR, which is expressed by human and murine plasmacytoid dendritic cells (PDC); endogenous in cells; host or cells: primary human plasmacytoid dendritic cells (BDCA-4+ selection) from buffy coats or from peripheral blood of allergic donors
Settings: anti-FcεRIα-FITC activated PDC with NGF 25 ng/ml vs without NGF; p=0.0066
Procedure: PDC isolated from peripheral blood were taken in RPMI 1640 medium (PAA) with penicillin G (100 U/ml), streptomycin ([…]), L-glutamine (2 mM), 10% heat inactivated FBS and IL-3 (R&D system) at 10 ng/ml. 2×10^5 cells were seeded per well in 200 μl medium in U-shaped bottom 96-well plate and incubated at 5% CO2 and 37° C. For IL-6 generation, mouse anti human FcεRI alpha-FITC (eBioscience) was added at 250 ng/ml to designated wells. p75^NTR blocking peptide TAT-Pep5 (Calbiochem) was employed at 100 nM to designated wells. NGF (R&D Systems) was added at concentration of 25 ng/ml to specified wells. All components were added following the sequence mentioned After 14 hour's stimulation the plate was centrifuged (270 g for 5 minutes). Supernatant was analyzed for IL-6 by ELISA (Bender MedSystems).
IL-6 ELISA was carried out following manufacturer's specifications with few modifications. […] Absorbance of whole plate was read on spectrophotometer at 450 nm as primary wave length and 620 nm as reference wave length. […]
We activated peripheral blood purified PDC by cross linking FcεRIα with anti-FcεRIα-FITC in the presence and absence of NGF at 25 ng/ml in-vitro. Supernatant was harvested after 12 hrs of activation and amount of IL-6 secreted was determined by ELISA. We have analysed 18 buffy coat samples.

Substance: NGF: Nerve growth factor, best characterized neurotrophin; natural p75^NTR agonist (R&D Systems)
- production of IL-6: significantly increased
